The target in the assay is human SMCT1 (monocarboxylate transporter of the SGLT family) (Homo sapiens (Human)., UniProt Q8N695). The assay can be described thus: cryo-EM structure.
Chain of human SMCT1 (monocarboxylate transporter of the SGLT family) (Q8N695 whole entry): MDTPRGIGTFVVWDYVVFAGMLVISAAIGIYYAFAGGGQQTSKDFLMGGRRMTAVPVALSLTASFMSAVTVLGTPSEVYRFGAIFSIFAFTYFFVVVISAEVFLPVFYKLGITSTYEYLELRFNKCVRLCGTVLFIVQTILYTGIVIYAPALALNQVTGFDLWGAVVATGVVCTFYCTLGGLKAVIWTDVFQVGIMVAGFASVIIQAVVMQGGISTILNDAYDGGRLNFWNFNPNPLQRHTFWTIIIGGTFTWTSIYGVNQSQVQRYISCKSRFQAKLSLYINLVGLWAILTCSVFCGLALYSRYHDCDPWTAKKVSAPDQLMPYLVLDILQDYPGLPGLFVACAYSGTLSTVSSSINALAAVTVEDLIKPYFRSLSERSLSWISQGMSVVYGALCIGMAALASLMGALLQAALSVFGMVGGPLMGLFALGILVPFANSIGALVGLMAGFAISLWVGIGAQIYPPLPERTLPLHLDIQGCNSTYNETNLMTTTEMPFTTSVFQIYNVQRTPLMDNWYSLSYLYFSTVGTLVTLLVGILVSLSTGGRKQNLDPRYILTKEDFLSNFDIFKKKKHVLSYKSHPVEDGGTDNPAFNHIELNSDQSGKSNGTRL

B1: nanobody Nb2 (binds SMCT1) (VHH)
VHH: QVQLQESGGGLVQAGGSLRLSCAASGNISTRAGMGWYRQAPGKEREFVASINWGAITNYADSVKGRFTISRDNAKNTVYLQMNSLKPEDTAVYYCAVEYKYGPQRSDTYYYWGQGTQVTVSS
As to B1, the binding result is on record as “binds”.

The values above are taken from paper PMC9482448 (Nature, 2021).
